Consider four compounds from patent publication US5387578A (priority 1990, dated 1995).

Data set [1] can be described thus: Release of 13b from conjugates in acetate buffer at 37° C. It is filed as physicochemical. Particulars: pH 5, 37° C., ionic strength 0.05M, HPLC. The protocol:
In Table 4 are reported t50 % of release of 3'deamino-3'[2(S) -methoxy-4-morpholinyl]doxorubicin (13b) from the conjugates at […] (acetate buffer) at 37° C.
Release of 13b from conjugates at pH 5 and
temperature 37° C. in acetate buffer^(7).
^(6) Time requests for the release of 50% of free drug 13b. Determine
by HPLC using a calibration curve of compound 13b.
^(7) Ionic strenght 0.05M.

Data set [2] concerns LoVo-Doxo-resistant (LoVo/DX) cells. It is filed as cell-based. Particulars: human, lovo/dx vs lovo cells, 240 min.

Regarding “conjugate of Poly(Glu-Na, Ala.Tyr) (1:1:1) and 14-O-(1-piperazinocarbonylmethyloxy-cyclohexyl)-3'-deamino[2(S)-methoxy-4- morpholinyl]doxorubicin [1^viii]”, in data set [1], the “t50% (time for the release of 50% of free drug 13b)” value worked out at 3.5 h. For the compound “copolymer of 3-methacryloylamino-2-hydroxypropane and 14-O-{1-[4-(6-methacryloylaminocaproyl)piperazinlyl]-carbonylmethyloxy-cyclohexyl}-3'-deamino-3'[2(S)-methoxy-4-morpholinyl]doxorubicin [1^vii]”, in data set [1], the “t50% (time for the release of 50% of free drug 13b)” value amounted to 20 h. As to `COc1cccc2c1C(=O)c1c(O)c3c(c(O)c1C2=O)C[C@@](O)(C(=O)CO)C[C@@H]3O[C@H]1C[C@H](N)[C@H](O)[C@H](C)O1` [Doxorubicin], in data set [2], the “R.I. = Resistance Index = (IC50 LoVo/DX)/(IC50 LoVo)” value worked out at 36.3. As to `COc1cccc2c1C(=O)c1c(O)c3c(c(O)c1C2=O)C[C@@](O)(C(=O)CO)C[C@@H]3O[C@H]1C[C@H](N2CCO[C@H](OC)C2)[C@H](O)[C@H](C)O1` [Compound 13b], the “R.I. = Resistance Index = (IC50 LoVo/DX)/(IC50 LoVo)” value in data set [2] came out at 2.
